Values quoted from earlier work, collected in article PMC6978450.

How the values were obtained:
IL-13Rα2 (Mus musculus) = IL-13Rα2 (Mus musculus) (UniProt O88786)
IL-13Rα1 (Mus musculus) = IL-13Rα1 (Mus musculus) (UniProt O09030)
Chain of UniProt O09030 (O09030 26-340): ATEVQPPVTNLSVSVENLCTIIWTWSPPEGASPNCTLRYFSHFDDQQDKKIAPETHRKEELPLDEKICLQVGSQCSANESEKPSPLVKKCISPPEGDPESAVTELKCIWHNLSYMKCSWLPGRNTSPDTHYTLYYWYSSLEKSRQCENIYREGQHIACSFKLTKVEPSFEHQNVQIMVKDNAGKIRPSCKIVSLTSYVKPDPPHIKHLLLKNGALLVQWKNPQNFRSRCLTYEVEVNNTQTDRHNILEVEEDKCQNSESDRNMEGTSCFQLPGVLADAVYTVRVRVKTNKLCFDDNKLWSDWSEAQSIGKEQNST

Chain of UniProt O88786 (O88786 22-334): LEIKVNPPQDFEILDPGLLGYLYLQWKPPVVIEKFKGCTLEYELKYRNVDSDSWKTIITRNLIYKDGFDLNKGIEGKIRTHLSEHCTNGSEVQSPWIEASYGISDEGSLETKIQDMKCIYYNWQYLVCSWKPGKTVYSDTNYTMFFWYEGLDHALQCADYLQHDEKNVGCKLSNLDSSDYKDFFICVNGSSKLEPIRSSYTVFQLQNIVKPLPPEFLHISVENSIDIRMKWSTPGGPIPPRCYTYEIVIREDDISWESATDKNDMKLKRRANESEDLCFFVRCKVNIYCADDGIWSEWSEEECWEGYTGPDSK

Kd (IL-13Rα2 (Mus musculus)): 0.00044 µM | Kd (IL-13Rα1 (Mus musculus)): 0.03 µM
Substance: IL-13 (from UniProt P20109)
